First the molecules themselves.
B1: PSMα1, synthetic peptide (peptide)
chain: For-MGIIAGIIKVIKSLIEQFTGK
notes: source: synthetic peptide (Sangon Biotech, purity > 95%)
B2: PSMα4, synthetic peptide (peptide)
chain: For-MAIVGTIIKIIKAIIDIFAK
notes: as for B1
B3: PSMα2, synthetic peptide (peptide)
chain: For-MGIIAGIIKFIKGLIEKFTGK
notes: as for B1
B4: PSMα3, synthetic peptide (peptide)
chain: For-MEFVAKLFKFFKDLLGKFLGNN
notes: as for B1
B5: PSMα2 (secreted by S. aureus MW2) (peptide)
chain: MGIIAGIIKFIKGLIEKFTGK
notes: also called phenol-soluble modulin α2
B6: PSMα1 (secreted by S. aureus MW2) (peptide)
chain: MGIIAGIIKVIKSLIEQFTGK
notes: also called phenol-soluble modulin α1
B7: PSMα3 (secreted by S. aureus MW2) (peptide)
chain: MEFVAKLFKFFKDLLGKFLGNN
notes: also called phenol-soluble modulin α3

No end group written: not given here. *: point of attachment. For = O=C*

In the first test the target is T1, N-terminus formylated δ-toxin, synthetic peptide (Staphylococcus aureus, N-formylmethionine at the N-terminus (fM)).
T1 construct: also called fδ-toxin
Kind of test: co-IP. Conditions: both partners purified.
For the molecule B1, the binding result is listed as “binds”.
For the molecule B2, the binding result is recorded as “binds”.
On the same count and under the same terms, the same measure for B3: “binds”; for B4: “binds”.

For another test, the target named is B3. Kind of test: co-IP. Conditions: both partners purified.
Regarding B1, the binding result is given as “binds”.
Still for that read-out and setting: with B2 the entry was “binds”.
Same read-out and setting: the same measure for B4: “binds”.

A further test deals with B1. Kind of test: co-IP. Particulars: both partners purified.
Consider B2, for which the binding result is reported as “binds”.
With B3, the binding result is listed as “binds”.
On to B4, for which the binding result is recorded as “binds”.

Another test deals with B4. Kind of test: co-IP. Particulars: both partners purified.
Turning to B1, the binding result was “binds”.
Same read-out and setting: with B2 the entry was “binds”; with B3, “binds”.

In the next test the target is T2, deformylated δ-toxin, synthetic peptide (Staphylococcus aureus).
T2 construct: also called dfδ-toxin
The test can be described thus: co-IP. Particulars: both partners purified.
In the case of B1, the binding result is on record as “binds”.
On the same count and under the same terms, the same measure for B2: “binds”.
Take B3: the binding result is given as “binds”.
Take B4: the binding result is listed as “binds”.

In another test the target is B7. The test can be described thus: co-IP. Particulars: both partners purified.
As to B5, the binding result is reported as “binds”.
Regarding B6, the binding result is reported as “binds”.
On to MAIVGTIIKIIKAIIDIFAK (also called phenol-soluble modulin α4) [PSMα4 (secreted by S. aureus MW2)], for which the binding result is listed as “binds”.

The target of the next test is B5. The test can be described thus: co-IP. Conditions: both partners purified.
In the case of B7, the binding result is listed as “binds”.
With B6, the binding result is “binds”.
Same read-out and setting: with MAIVGTIIKIIKAIIDIFAK (also called phenol-soluble modulin α4) [PSMα4 (secreted by S. aureus MW2)] the entry was “binds”.

Another test deals with T3, δ-toxin (secreted by S. aureus MW2 and its ΔPSMα strain) (Staphylococcus aureus MW2, N-terminal methionine formylated in part of the peptides (fδ-toxin) and deformylated in the rest (dfδ-toxin); Aggregate1 more than 50% fδ-toxin, Aggregate2 more than 85% dfδ-toxin).
T3 construct: also called PSMγ; δ-hemolysin
The test can be described thus: co-IP. Particulars: both partners purified.
In the case of B7, the binding result is given as “binds”.
The same measure, in the same setting: the same measure for B5: “binds”; for B6: “binds”.
Same read-out and setting: the same measure for MAIVGTIIKIIKAIIDIFAK (also called phenol-soluble modulin α4) [PSMα4 (secreted by S. aureus MW2)]: “binds”.

The next test deals with B6. Kind of test: co-IP. Particulars: both partners purified.
As for B7, the binding result is listed as “binds”.
Same read-out and setting: with B5 the entry was “binds”; with MAIVGTIIKIIKAIIDIFAK (also called phenol-soluble modulin α4) [PSMα4 (secreted by S. aureus MW2)], “binds”.

(Values after article PMC8158037, “Staphylococcus aureus N-terminus formylated δ-toxin tends to form amyloid fibrils, while the deformylated δ-toxin tends to form functional oligomer complexes” (Virulence, 2021).)
